What was measured:
Assay in all cases: IP/MS, LZTR1 R810W-FLAG, U87
SNX14 = target: T1, SNX14 (human, UniProt Q9Y5W7 1-946, limits assumed)
T1 sequence (looked up): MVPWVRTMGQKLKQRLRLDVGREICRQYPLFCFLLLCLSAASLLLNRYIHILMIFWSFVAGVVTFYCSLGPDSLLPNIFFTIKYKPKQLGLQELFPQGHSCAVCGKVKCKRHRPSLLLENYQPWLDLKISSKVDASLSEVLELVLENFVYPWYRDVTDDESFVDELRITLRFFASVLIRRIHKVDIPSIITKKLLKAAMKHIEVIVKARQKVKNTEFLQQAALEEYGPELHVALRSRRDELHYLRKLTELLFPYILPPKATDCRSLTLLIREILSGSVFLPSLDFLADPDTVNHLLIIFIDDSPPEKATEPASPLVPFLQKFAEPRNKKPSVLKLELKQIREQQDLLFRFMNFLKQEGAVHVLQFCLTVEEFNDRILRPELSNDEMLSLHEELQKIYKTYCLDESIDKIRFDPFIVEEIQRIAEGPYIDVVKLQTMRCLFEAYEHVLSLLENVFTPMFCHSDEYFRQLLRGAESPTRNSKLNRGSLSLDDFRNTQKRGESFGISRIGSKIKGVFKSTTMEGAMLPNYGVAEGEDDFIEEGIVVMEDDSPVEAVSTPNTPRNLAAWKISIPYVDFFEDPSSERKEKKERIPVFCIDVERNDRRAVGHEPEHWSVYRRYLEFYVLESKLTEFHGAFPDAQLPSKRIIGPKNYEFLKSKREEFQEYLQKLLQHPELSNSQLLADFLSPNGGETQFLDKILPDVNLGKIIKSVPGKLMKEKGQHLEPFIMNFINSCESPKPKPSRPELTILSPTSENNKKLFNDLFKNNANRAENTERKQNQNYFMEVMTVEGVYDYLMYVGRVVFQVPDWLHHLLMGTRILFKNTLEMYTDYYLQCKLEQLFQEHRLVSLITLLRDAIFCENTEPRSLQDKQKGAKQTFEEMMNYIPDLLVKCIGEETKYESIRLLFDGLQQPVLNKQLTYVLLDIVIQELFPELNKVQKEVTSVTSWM
In short: (§1)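 Read-out: spectral counts from LC-MS/MS (Orbitrap Fusion) after MaxQuant identification. Variable modifications were Met oxidation, protein N-terminal acetylation and N/Q deamidation.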

ARHGAP31 = ARHGAP31 (human, UniProt Q2M1Z3 1-1444)
In short: as §1

ATAD2 = target: T2, ATAD2 (human, UniProt Q6PL18 1-1390, limits assumed)
T2 sequence (looked up): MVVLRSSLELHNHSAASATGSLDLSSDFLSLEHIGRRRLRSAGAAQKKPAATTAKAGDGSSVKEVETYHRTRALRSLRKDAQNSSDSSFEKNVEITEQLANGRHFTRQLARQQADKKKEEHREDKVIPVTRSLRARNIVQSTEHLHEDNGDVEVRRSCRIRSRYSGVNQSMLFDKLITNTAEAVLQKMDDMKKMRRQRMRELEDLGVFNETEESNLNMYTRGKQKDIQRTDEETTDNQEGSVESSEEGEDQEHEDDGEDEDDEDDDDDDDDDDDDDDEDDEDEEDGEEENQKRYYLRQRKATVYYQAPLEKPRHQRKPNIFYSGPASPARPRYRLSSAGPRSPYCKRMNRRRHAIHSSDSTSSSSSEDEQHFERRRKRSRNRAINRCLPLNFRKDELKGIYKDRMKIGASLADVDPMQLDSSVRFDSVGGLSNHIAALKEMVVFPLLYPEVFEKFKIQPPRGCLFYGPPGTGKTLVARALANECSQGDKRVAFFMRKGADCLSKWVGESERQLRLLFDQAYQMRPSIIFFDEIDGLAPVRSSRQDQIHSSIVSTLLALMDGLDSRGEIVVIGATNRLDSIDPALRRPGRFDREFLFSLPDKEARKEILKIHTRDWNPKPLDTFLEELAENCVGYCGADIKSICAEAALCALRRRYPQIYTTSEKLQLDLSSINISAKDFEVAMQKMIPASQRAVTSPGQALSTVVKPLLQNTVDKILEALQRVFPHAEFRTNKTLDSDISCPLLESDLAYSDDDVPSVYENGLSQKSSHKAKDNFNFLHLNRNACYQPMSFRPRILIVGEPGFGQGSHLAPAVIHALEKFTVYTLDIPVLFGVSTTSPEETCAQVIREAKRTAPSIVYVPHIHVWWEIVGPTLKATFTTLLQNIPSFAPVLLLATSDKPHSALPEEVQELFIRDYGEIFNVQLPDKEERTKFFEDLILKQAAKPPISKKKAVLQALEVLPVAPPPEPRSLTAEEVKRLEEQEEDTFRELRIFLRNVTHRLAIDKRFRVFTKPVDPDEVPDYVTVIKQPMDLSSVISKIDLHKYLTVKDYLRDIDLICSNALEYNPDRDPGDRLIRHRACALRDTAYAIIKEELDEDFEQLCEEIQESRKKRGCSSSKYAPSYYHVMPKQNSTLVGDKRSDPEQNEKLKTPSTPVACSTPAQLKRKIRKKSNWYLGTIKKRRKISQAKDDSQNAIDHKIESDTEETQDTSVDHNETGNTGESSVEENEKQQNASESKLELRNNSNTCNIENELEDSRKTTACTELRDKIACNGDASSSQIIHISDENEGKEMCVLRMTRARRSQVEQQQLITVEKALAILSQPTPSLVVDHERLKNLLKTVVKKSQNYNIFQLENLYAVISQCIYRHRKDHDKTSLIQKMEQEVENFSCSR
In short: as §1

Measured: binding result

Chain of ARHGAP31 (Q2M1Z3 whole entry): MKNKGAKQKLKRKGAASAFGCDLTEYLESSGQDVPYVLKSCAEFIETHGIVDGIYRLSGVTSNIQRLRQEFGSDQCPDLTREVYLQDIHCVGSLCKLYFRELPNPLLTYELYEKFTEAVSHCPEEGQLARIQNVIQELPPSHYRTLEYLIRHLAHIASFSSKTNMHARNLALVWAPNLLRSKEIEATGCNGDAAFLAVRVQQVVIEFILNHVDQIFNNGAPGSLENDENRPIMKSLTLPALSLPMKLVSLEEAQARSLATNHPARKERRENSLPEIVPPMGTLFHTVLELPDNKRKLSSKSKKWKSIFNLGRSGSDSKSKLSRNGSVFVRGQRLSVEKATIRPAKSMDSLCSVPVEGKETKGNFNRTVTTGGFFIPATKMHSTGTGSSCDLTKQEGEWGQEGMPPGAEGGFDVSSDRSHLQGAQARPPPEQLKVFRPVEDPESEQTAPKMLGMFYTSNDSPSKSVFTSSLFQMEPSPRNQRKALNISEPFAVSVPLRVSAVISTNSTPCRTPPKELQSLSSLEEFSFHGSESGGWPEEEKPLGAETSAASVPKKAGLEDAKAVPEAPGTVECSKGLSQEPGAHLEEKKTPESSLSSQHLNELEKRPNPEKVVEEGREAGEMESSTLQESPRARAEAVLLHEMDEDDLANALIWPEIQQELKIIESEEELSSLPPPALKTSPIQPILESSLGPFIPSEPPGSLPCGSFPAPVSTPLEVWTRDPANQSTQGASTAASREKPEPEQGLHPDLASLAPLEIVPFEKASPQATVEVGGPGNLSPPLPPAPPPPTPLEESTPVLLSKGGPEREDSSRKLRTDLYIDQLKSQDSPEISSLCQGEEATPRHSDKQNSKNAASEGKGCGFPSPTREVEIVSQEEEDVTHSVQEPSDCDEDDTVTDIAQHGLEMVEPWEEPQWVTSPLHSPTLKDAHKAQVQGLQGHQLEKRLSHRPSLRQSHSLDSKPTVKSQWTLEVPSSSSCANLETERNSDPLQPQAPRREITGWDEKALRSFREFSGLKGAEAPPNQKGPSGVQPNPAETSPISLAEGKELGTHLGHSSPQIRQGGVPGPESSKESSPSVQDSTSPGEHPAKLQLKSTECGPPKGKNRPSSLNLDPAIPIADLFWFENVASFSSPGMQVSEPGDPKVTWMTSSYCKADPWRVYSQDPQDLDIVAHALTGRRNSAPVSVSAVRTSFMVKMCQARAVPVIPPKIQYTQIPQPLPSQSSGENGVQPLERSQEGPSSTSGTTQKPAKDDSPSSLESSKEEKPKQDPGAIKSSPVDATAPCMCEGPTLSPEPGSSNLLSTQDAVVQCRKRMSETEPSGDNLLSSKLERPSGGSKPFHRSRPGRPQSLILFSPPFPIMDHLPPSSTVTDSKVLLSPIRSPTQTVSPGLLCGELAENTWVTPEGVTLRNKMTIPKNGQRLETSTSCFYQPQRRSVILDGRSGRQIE

B1: LZTR1 R810W-FLAG (other, human, UniProt Q8N653 1-840, looked up)
chain: MAGPGSTGGQIGAAALAGGARSKVAPSVDFDHSCSDSVEYLTLNFGPFETVHRWRRLPPCDEFVGARRSKHTVVAYKDAIYVFGGDNGKTMLNDLLRFDVKDCSWCRAFTTGTPPAPRYHHSAVVYGSSMFVFGGYTGDIYSNSNLKNKNDLFEYKFATGQWTEWKIEGRLPVARSAHGATVYSDKLWIFAGYDGNARLNDMWTIGLQDRELTCWEEVAQSGEIPPSCCNFPVAVCRDKMFVFSGQSGAKITNNLFQFEFKDKTWTRIPTEHLLRGSPPPPQRRYGHTMVAFDRHLYVFGGAADNTLPNELHCYDVDFQTWEVVQPSSDSEVGGAEVPERACASEEVPTLTYEERVGFKKSRDVFGLDFGTTSAKQPTQPASELPSGRLFHAAAVISDAMYIFGGTVDNNIRSGEMYRFQFSCYPKCTLHEDYGRLWESRQFCDVEFVLGEKEECVQGHVAIVTARSRWLRRKITQARERLAQKLEQEAAPVPREAPGVAAGGARPPLLHVAIREAEARPFEVLMQFLYTDKIKYPRKGHVEDVLLIMDVYKLALSFQLCRLEQLCRQYIEASVDLQNVLVVCESAARLQLSQLKEHCLNFVVKESHFNQVIMMKEFERLSSPLIVEIVRRKQQPPPRTPLDQPVDIGTSLIQDMKAYLEGAGAEFCDITLLLDGHPRPAHKAILAARSSYFEAMFRSFMPEDGQVNISIGEMVPSRQAFESMLRYIYYGEVNMPPEDSLYLFAAPYYYGFYNNRLQAYCKQNLEMNVTVQNVLQILEAADKTQALDMKRHCLHIIVHQFTKVSKLPTLWSLSQQLLLDIIDSLASHISDKQCAELGADI
notes: Stably expressed in U87 cells by lentivirus; also called LZTR1-FLAG-R810W; LZTR1 RW; not shown: FLAG tag
binds: all assays above

— US20250262210A1 (TRUSTEES OF COLUMBIA UNIVERSITY IN THE CITY OF NEW YORK, published 2025)
